Experimental data published in IntAct's records for PubMed 19208808.

B1: ATP-dependent RNA helicase DDX19B (Homo sapiens), Q9UMR2-1 (parent)
chain: MATDSWALAVDEQEAAAESLSNLHLKEEKIKPDTNGAVVKTNANAEKTDEEEKEDRAAQSLLNKLIRSNLVDNTNQVEVLQRDPNSPLYSVKSFEELRLKPQLLQGVYAMGFNRPSKIQENALPLMLAEPPQNLIAQSQSGTGKTAAFVLAMLSQVEPANKYPQCLCLSPTYELALQTGKVIEQMGKFYPELKLAYAVRGNKLERGQKISEQIVIGTPGTVLDWCSKLKFIDPKKIKVFVLDEADVMIATQGHQDQSIRIQRMLPRNCQMLLFSATFEDSVWKFAQKVVPDPNVIKLKREEETLDTIKQYYVLCSSRDEKFQALCNLYGAITIAQAMIFCHTRKTASWLAAELSKEGHQVALLSGEMMVEQRAAVIERFREGKEKVLVTTNVCARGIDVEQVSVVINFDLPVDKDGNPDNETYLHRIGRTGRFGKRGLAVNMVDSKHSMNILNRIQEHFNKKIERLDTDDLDEIEKIAN

Variants of: B1
Conditions: with NUP214, P35658-1
NUP214, P35658-1, sequence (P35658 whole entry): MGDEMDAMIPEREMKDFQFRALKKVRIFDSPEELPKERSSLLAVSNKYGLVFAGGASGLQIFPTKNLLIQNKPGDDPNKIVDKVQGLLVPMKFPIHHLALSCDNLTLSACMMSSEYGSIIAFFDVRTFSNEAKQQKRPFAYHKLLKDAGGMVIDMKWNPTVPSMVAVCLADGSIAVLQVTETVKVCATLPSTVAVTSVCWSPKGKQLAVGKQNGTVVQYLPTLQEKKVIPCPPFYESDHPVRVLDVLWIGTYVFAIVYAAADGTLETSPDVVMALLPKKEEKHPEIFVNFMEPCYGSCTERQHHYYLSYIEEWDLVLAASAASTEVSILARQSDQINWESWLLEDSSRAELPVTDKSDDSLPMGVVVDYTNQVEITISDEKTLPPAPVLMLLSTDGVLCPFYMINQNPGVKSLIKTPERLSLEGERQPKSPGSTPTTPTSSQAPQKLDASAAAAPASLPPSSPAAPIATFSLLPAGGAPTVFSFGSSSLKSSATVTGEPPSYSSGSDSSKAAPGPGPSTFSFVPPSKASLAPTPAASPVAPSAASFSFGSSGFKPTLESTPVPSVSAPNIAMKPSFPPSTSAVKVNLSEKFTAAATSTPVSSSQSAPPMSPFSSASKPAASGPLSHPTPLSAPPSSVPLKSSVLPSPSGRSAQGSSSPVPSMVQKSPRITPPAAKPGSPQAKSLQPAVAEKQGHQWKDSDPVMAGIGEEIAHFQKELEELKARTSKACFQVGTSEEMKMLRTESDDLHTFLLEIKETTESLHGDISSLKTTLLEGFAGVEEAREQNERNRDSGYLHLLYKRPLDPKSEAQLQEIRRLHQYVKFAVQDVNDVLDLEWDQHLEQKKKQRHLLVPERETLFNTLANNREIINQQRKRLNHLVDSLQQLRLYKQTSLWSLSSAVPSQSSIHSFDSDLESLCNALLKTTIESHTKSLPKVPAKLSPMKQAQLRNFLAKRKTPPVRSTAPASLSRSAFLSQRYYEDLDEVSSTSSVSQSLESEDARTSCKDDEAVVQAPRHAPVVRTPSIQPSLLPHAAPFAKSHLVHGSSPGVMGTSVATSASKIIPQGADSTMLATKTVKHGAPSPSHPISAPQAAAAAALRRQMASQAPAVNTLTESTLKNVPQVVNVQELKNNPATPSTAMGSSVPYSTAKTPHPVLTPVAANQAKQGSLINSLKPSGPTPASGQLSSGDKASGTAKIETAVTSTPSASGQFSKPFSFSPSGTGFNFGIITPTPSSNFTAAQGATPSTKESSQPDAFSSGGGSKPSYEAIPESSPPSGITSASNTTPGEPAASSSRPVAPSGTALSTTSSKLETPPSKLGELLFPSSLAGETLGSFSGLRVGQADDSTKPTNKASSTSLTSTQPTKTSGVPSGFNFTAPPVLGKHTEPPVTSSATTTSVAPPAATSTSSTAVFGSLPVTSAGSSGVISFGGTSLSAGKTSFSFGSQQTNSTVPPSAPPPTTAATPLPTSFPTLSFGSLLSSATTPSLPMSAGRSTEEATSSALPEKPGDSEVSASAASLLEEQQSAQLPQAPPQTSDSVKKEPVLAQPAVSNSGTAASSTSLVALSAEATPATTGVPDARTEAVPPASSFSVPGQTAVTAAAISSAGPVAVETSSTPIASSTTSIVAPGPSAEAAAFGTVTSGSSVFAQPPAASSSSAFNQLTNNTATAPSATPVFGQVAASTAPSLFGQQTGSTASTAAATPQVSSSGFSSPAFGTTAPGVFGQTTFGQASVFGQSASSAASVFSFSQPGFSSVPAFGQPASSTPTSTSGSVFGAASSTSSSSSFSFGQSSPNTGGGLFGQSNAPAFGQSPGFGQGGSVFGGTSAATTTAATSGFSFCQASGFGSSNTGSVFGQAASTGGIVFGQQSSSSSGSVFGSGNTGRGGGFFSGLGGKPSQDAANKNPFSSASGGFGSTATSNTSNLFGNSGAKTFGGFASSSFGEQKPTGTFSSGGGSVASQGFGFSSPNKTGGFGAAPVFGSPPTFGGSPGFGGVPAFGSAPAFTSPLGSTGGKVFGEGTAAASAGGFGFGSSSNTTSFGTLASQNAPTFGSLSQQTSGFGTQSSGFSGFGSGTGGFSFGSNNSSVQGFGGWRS

Row | Variant | effect of a mutation on the interaction
1 | MATDSWALAVDEQEAAAESLSNLHLKEEKIKPDTNGAVVKTNANAEKTDEEEKEDRAAQSLLNKLIRSNLVDNTNQVEVLQRDPNSPLYSVKSFEELRLKPQLLQGVYAMGFNRPSKIQENALPLMLAEPPQNLIAQSQSGTGKTAAFVLAMLSQVEPANKYPQCLCLSPTYELALQTGKVIEQMGKFYPELKLAYAVRGNKLERGQKISEQIVIGTPGTVLDWCSKLKFIDPKKIKVFVLDEADVMIATQGHQDQSIEIQRMLPRNCQMLLFSATFEDSVWKFAQKVVPDPNVIKLKREEETLDTIKQYYVLCSSRDEKFQALCNLYGAITIAQAMIFCHTRKTASWLAAELSKEGHQVALLSGEMMVEQRAAVIERFREGKEKVLVTTNVCARGIDVEQVSVVINFDLPVDKDGNPDNETYLHRIGRTGRFGKRGLAVNMVDSKHSMNILNRIQEHFNKKIERLDTDDLDEIEKIAN [R259E] | disrupting interaction strength
2 | MATDSWALAVDEQEAAAESLSNLHLKEEKIKPDTNGAVVKTNANAEKTDEEEKEDRAAQSLLNKLIRSNLVDNTNQVEVLQRDPNSPLYSVKSFEELRLKPQLLQGVYAMGFNRPSKIQENALPLMLAEPPQNLIAQSQSGTGKTAAFVLAMLSQVEPANKYPQCLCLSPTYELALQTGKVIEQMGKFYPELKLAYAVRGNKLERGQKISEQIVIGTPGTVLDWCSKLKFIDPKKIKVFVLDEADVMIATQGHQDQSIAIQRMLPRNCQMLLFSATFEDSVWKFAQKVVPDPNVIKLKREEETLDTIKQYYVLCSSRDEKFQALCNLYGAITIAQAMIFCHTRKTASWLAAELSKEGHQVALLSGEMMVEQRAAVIERFREGKEKVLVTTNVCARGIDVEQVSVVINFDLPVDKDGNPDNETYLHRIGRTGRFGKRGLAVNMVDSKHSMNILNRIQEHFNKKIERLDTDDLDEIEKIAN [R259A] | disrupting interaction strength
3 | MATDSWALAVDEQEAAAESLSNLHLKEEKIKPDTNGAVVKTNANAEKTDEEEKEDRAAQSLLNKLIRSNLVDNTNQVEVLQRDPNSPLYSVKSFEELRLKPQLLQGVYAMGFNRPSKIQENALPLMLAEPPQNLIAQSQSGTGKTAAFVLAMLSQVEPANKYPQCLCLSPTYELALQTGKVIEQMGKFYPELKLAYAVRGNKLERGQKISEQIVIGTPGTVLDWCSKLKFIDPKKIKVFVLDEADVMIATQGHQDQSIQIQRMLPRNCQMLLFSATFEDSVWKFAQKVVPDPNVIKLKREEETLDTIKQYYVLCSSRDEKFQALCNLYGAITIAQAMIFCHTRKTASWLAAELSKEGHQVALLSGEMMVEQRAAVIERFREGKEKVLVTTNVCARGIDVEQVSVVINFDLPVDKDGNPDNETYLHRIGRTGRFGKRGLAVNMVDSKHSMNILNRIQEHFNKKIERLDTDDLDEIEKIAN [R259Q] | decreasing interaction
